In US9084745B2, “Modulation of the Vps10p-domain for the treatment of cardiovascular disease” (H. Lundback A/S, priority 2008, dated 2015):

Molecular target: T1, recombinant human sortilin (Homo sapiens, UniProt Q99523)
T1 sequence (Q99523 78-755 limits assumed): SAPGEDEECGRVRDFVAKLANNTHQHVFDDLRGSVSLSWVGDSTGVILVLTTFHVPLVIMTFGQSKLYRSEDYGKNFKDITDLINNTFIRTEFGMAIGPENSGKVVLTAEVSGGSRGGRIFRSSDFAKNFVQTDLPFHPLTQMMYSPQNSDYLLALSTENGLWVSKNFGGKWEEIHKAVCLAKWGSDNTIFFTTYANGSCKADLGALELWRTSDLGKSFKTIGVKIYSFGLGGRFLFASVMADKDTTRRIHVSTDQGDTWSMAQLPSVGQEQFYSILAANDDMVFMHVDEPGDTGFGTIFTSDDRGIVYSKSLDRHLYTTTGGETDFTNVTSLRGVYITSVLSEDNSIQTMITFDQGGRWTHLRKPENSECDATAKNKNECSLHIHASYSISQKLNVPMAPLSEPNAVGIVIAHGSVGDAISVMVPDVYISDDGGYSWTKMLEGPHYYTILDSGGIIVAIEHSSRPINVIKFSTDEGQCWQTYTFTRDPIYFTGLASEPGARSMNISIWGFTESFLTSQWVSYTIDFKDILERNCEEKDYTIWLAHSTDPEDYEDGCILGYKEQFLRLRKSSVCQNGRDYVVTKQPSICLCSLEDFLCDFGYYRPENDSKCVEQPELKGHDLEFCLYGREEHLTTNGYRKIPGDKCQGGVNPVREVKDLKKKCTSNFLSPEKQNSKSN
Assay: Surface plasmon resonance analysis of ApoB binding to immobilized sortilin
Conditions: ApoB 10, 20, 50 nM, on and off rates recorded, displayed experiment
Experimental: FIG. 5b: Characterization of ApoB binding to recombinant human sortilin (30). Sortilin was immobilized on a BIAcore CM5 sensorchip at a density of […]. A) After baseline calibration in running buffer (10 mM Hepes, 150 mM NaCl, 1 mM EGTA, 1.5 mM CaCl2, 0.005% P20, pH 7.4) 10 μg/ml rabbit anti-sortilin IgG (12) or running buffer alone was applied to the chip. At t=700 sec the response units obtained in the presence of anti-sortilin IgG was arbitrarily set at 100 and 50 nM ApoB was applied to the flow cell pre-incubated with antibody or with buffer alone. Association of ApoB binding was measured until 1200 sec, after which the solute was changed to buffer to allow dissociation. […]
Determination of direct binding of ligand to immobilized protein can be performed by e.g. surface plasmon resonance analysis (Biacore, Sweden) using CaHBS as standard running buffer (10 mM HEPES, pH 7.4, 140 mM NaCl, 2 mM CaCl2, 1 mM EGTA, and 0.005% Tween-20). […] In another approach, inhibition of an established ligand can be monitored in the absence or presence of putative inhibitors. […] The data collected are analysed by fitting of sensorgrams for affinity estimations and inhibitory potential using the Biaevaluation version 3.1 program. We evaluated the binding properties of ApoB to sortilin (FIG. 5b). […]

ApoB: apolipoprotein B, the part of LDL that binds to the LDL receptor; tested as sortilin ligand
Kd: 0.4 nM
